Test results taken from PMC9478924.

Target: EVA-4 (UniProt P0C8E9)
Assay: SPR

CCL13, Q99616 17-98 (ligand; biotin on the Avi-tag (Bir-A ligase); other documents disagree on this pair), sequence (Q99616 17-98): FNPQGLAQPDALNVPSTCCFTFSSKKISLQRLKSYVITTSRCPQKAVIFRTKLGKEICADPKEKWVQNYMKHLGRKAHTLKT
EVA-4, sequence (P0C8E9 24-127): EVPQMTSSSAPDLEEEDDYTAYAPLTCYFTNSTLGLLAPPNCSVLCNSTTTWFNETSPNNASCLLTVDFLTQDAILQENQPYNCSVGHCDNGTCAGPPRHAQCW

## CCL13, Q99616 17-98 (ligand; biotin on the Avi-tag (Bir-A ligase); other documents disagree on this pair)
  Kd: 253 nM
